Assay [1] deals with GST-syntaxin 1A (Syn1A11) point mutant 12 (four point mutations) (Schistosoma japonicum; rat). Nature of the assay: GST-syntaxin point mutant on glutathione beads, soluble ligand, Western blot densitometry, FIG. 5B. On the technique in general: Immunoblotting shows a protein as a band on a membrane.
In assay [2] the target is GST-syntaxin 1A (Syn1A11) point mutant 13 (four point mutations) (Schistosoma japonicum; rat). Described as above.
Assay [3] concerns the target GST-syntaxin 1A (Syn1A11) point mutant 34 (Schistosoma japonicum; rat). Described as above.
In assay [4] the target is GST-syntaxin 1A (Syn1A11) point mutant 45 (Schistosoma japonicum; rat). Described as above.
Assay [5] concerns the target GST-syntaxin 1A (Syn1A11) point mutant M1: R198A, I202A (Schistosoma japonicum; rat). Described as above.
Assay [6] deals with GST-syntaxin 1A (Syn1A11) point mutant M2: L205A, I209A (Schistosoma japonicum; rat). Described as above.
Assay [7] deals with GST-syntaxin 1A (Syn1A11) point mutant M3: L212A, F216A (Schistosoma japonicum; rat). Described as above.
The target of assay [8] is GST-syntaxin 1A (Syn1A11) point mutant M4: V223A, Q226A (Schistosoma japonicum; rat). Described as above.
Assay [9] concerns the target GST-syntaxin 1A (Syn1A11) point mutant M5: I230A, I233A (Schistosoma japonicum; rat). The description is as above.
Assay [10] addresses GST-syntaxin 1A (Syn1A11) point mutant M6: A240V, V244A (Schistosoma japonicum; rat). Described as above.
In assay [11] the target is GST-syntaxin 1A cytoplasmic domain fusion protein (Syn 1A11, amino acids 4-266), immobilized on glutathione agarose beads (Schistosoma japonicum; rat). Nature of the assay: GST-syntaxin 1A (wild type) on glutathione beads, soluble ligand, Western blot densitometry, FIG. 5B.
Assay [12] concerns the target GST-syntaxin 1A deletion mutant Syn 1A4 (amino acids 8-76) (Schistosoma japonicum; rat). Nature of the assay: GST-syntaxin deletion mutant on glutathione beads, soluble ligand, Western blot densitometry; FIG. 4C row 1 from top, row label only in the figure (assigned by Table 1 order and paragraph 328).
Assay [13] has as its target GST-syntaxin 1A deletion mutant Syn 1A5 (amino acids 4-114) (Schistosoma japonicum; rat). Nature of the assay: GST-syntaxin deletion mutant on glutathione beads, soluble ligand, Western blot densitometry; FIG. 4C row 2 from top, row label only in the figure (assigned by Table 1 order and paragraph 328).
In assay [14] the target is GST-syntaxin 1A deletion mutant Syn 1A6 (amino acids 4-190) (Schistosoma japonicum; rat). Nature of the assay: GST-syntaxin deletion mutant on glutathione beads, soluble ligand, Western blot densitometry; FIG. 4C row 3 from top, row label only in the figure (assigned by Table 1 order and paragraph 328).
The target in assay [15] is GST-syntaxin 1A deletion mutant Syn 1A13 (amino acids 4-221) (Schistosoma japonicum; rat). Nature of the assay: GST-syntaxin deletion mutant on glutathione beads, soluble ligand, Western blot densitometry; FIG. 4C row 4 from top, row label only in the figure (assigned by Table 1 order and paragraph 328).
For assay [16], the target named is GST-syntaxin 1A deletion mutant Syn 1A17 (amino acids 4-240) (Schistosoma japonicum; rat). Nature of the assay: GST-syntaxin deletion mutant on glutathione beads, soluble ligand, Western blot densitometry; FIG. 4C row 5 from top, row label only in the figure (assigned by Table 1 order and paragraph 328).
Assay [17] has the same target. Nature of the assay: 20S complex on GST-Syn 1A17 beads, ATP and Mg++, Western blot densitometry.
The target in assay [18] is GST-syntaxin 1A H3 domain construct Syn 1A16 (amino acids 191-266) (Schistosoma japonicum; rat). Nature of the assay: 20S complex on GST-Syn 1A16 beads, ATP and Mg++, Western blot densitometry.
For assay [19] the target is unchanged. Nature of the assay: 20S complex assembly on GST-syntaxin beads with all four proteins together, ATP, 18° C. overnight MgCl2, Western blot densitometry, FIG. 6B.
The target in assay [20] is GST-syntaxin 1A cytoplasmic domain fusion protein (Syn 1A11, amino acids 4-266), immobilized on glutathione agarose beads (Schistosoma japonicum; rat). The description is as above.
Assay [21] addresses GST-syntaxin 1A deletion mutant Syn 1A13 (amino acids 4-221) (Schistosoma japonicum; rat). The description is as above.
Assay [22] addresses GST-syntaxin 1A deletion mutant Syn 1A17 (amino acids 4-240) (Schistosoma japonicum; rat). The assay is described as above.
Assay [23] addresses GST-syntaxin 1A deletion mutant Syn 1A6 (amino acids 4-190) (Schistosoma japonicum; rat). The assay is described as above.
Assay [24] concerns the target GST-syntaxin 1A cytoplasmic domain fusion protein (Syn 1A11, amino acids 4-266), immobilized on glutathione agarose beads (Schistosoma japonicum; rat). Nature of the assay: 20S complex assembly on GST-syntaxin beads with SNAP-25, VAMP, α-SNAP and NSF added together, ATP, 25° C., Western blot densitometry, FIG. 6A.
The target in assay [25] is GST-syntaxin 1A H3 domain construct Syn 1A16 (amino acids 191-266) (Schistosoma japonicum; rat). Nature of the assay: 20S complex assembly on GST-syntaxin beads with all four proteins together, ATPγS, 18° C. overnight MgCl2, Western blot densitometry, FIG. 6B.
In assay [26] the target is GST-syntaxin 1A cytoplasmic domain fusion protein (Syn 1A11, amino acids 4-266), immobilized on glutathione agarose beads (Schistosoma japonicum; rat). The assay is described as above.
The target of assay [27] is GST-syntaxin 1A deletion mutant Syn 1A13 (amino acids 4-221) (Schistosoma japonicum; rat). The description is as above.
In assay [28] the target is GST-syntaxin 1A deletion mutant Syn 1A17 (amino acids 4-240) (Schistosoma japonicum; rat). The description is as above.
Assay [29] addresses GST-syntaxin 1A deletion mutant Syn 1A6 (amino acids 4-190) (Schistosoma japonicum; rat). The assay is described as above.
The target of assay [30] is GST-syntaxin 1A cytoplasmic domain fusion protein (Syn 1A11, amino acids 4-266), immobilized on glutathione agarose beads (Schistosoma japonicum; rat). Nature of the assay: 20S complex assembly on GST-syntaxin beads with SNAP-25, VAMP, α-SNAP and NSF added together, ATPγS, 25° C., Western blot densitometry, FIG. 6A.
Assay [31] deals with VAMP 2 cytoplasmic domain (amino acids 1-94), recombinant, immobilized on the SPR flow cell (rat). Nature of the assay: SPR (BIAcore), VAMP 2 cytoplasmic domain immobilized.
Chain of VAMP 2 cytoplasmic domain (amino acids 1-94), recombinant, immobilized on the SPR flow cell (rat) (chain, as listed by the source): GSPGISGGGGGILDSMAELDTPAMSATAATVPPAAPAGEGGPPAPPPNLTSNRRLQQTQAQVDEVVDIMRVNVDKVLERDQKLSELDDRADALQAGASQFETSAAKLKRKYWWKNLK
Assay [32] has the same target. Nature of the assay: SPR (BIAcore), VAMP 2 cytoplasmic domain immobilized; KD = kd/ka.

By koff is commonly meant the rate constant with which the complex falls apart. In general, kon refers to the rate constant with which the complex forms. A word on the Kd: it is the concentration at which binding is half-saturated.

Chain of His-tagged NSF (N-ethylmaleimide-sensitive factor), soluble recombinant (P18708 whole entry): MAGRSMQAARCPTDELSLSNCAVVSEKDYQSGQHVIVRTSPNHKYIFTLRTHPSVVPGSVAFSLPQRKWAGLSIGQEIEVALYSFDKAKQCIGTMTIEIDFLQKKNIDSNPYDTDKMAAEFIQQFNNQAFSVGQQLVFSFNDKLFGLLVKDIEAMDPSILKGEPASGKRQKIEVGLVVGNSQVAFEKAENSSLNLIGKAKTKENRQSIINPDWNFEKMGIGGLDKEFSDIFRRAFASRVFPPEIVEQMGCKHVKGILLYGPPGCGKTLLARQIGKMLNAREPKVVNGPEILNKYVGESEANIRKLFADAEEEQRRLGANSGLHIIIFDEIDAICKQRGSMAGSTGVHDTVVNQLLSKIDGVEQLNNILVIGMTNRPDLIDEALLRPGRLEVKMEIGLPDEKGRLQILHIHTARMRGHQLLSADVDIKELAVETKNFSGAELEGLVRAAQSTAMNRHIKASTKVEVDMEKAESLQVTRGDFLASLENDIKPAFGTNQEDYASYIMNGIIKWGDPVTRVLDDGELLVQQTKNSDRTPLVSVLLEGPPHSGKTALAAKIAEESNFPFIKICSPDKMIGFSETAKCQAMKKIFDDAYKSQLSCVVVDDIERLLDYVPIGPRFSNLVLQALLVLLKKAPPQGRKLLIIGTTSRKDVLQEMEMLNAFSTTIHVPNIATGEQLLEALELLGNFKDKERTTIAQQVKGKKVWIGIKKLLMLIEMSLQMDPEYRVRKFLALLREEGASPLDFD
Chain of syntaxin 1A carboxyl-terminal domain (amino acids 194-267), soluble recombinant (chain): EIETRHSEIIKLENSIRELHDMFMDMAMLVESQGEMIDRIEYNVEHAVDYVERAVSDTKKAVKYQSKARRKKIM

Consider “n-sec1, soluble recombinant (from UniProt P61765)”, for which the densitometry pixel value in assay [1] came out at 618 pixel value; in assay [2], 79 pixel value; in assay [3] it was 353 pixel value; in assay [4] it was 7 pixel value; in assay [5], 522 pixel value; in assay [6] it was 779 pixel value. The densitometry pixel value in assay [7] amounted to 554 pixel value; in assay [8], 623 pixel value; in [9], 15 pixel value; in assay [10] it was 687 pixel value; in [11], 1070 pixel value; in [12], 0 pixel value. The densitometry pixel value stood at 0 pixel value in assay [13], 0 pixel value in assay [14], 84 pixel value in assay [15] and 2450 pixel value in assay [16].

With “His-tagged NSF (N-ethylmaleimide-sensitive factor), soluble recombinant (from UniProt P18708) (enzyme)”, the percent dissociated in the presence of ATP and Mg++ in assay [17] came to 30%; in [18], 11%. Moreover, the densitometry pixel value in assay [19] worked out at 357 pixel value; in assay [20], 92 pixel value; in assay [21], 12 pixel value; in [22], 198 pixel value; in assay [23], 0 pixel value; in assay [24], 362 pixel value. The densitometry pixel value came to 319 pixel value in assay [25]; 163 pixel value in assay [26]; 46 pixel value in assay [27]; 295 pixel value in assay [28]; 0 pixel value in assay [29]; 1590 pixel value in assay [30].

Regarding “syntaxin 1A carboxyl-terminal domain (amino acids 194-267), soluble recombinant”, in assay [31], the koff was 0.0022 s⁻¹ and the on-rate constant (kon) worked out at 470 M⁻¹ s⁻¹. The Kd in assay [32] stood at 4.7 µM.

The values are drawn from patent US5693476.
